Here are results for 167 variants from the RNAGym collection of RNA variant scans (doi:10.7554/elife.80360).

B1: Hairpin Ribozyme (parent)
chain: GUCCUCUUUCACGUGCGCGUGAAAGAGAGAAGUGAACCAGAGAAACACACGUUGUGGUAUAUUACCUGGUA

Variants of B1 are the subject of this series. In words: self-cleavage, relative activity (ratio to wild type); higher = more cleavage; co-transcriptional.
Turning to G21A A30U, the self-cleavage amounted to 0.144.

For the variant G21C G25C, the self-cleavage was 0.238.

Take U20C A71G: the self-cleavage was determined as 1.12.

As to U20C A45C, the self-cleavage was found to be 0.105.

In the case of U20G G69A, the self-cleavage worked out at 0.421.

With U20G G69U, the self-cleavage came out at 0.22.

For the variant U20G G69C, the self-cleavage is 0.284.

G21A G34C: the self-cleavage worked out at 1.11.

G21A C66A: the self-cleavage came out at 0.201.

Turning to G21U G54C, the self-cleavage is 0.438.

Turning to G21U G54U, the self-cleavage turned out to be 0.329.

As for G21U G54A, the self-cleavage came to 0.582.

U20G U58G: the self-cleavage amounted to 0.835.

As for U20G C38G, the self-cleavage is 0.119.

U20G A59U: the self-cleavage was found to be 0.123.

For the variant G21C G27U, the self-cleavage worked out at 0.2.

As for U20G A44C, the self-cleavage came out at 0.162.

In the case of U20G A44G, the self-cleavage turned out to be 0.143.

In the case of U20G A71C, the self-cleavage came to 1.25.

In the case of G21A G56C, the self-cleavage amounted to 0.2.

As for G21C A35G, the self-cleavage was 0.666.

On to G21C G56A, for which the self-cleavage turned out to be 0.184.

As for G21C A26G, the self-cleavage stood at 0.528.

Consider G21C U62A, for which the self-cleavage turned out to be 0.206.

Regarding G21C U62C, the self-cleavage amounted to 0.334.

On to G21U C48A, for which the self-cleavage is 0.122.

Turning to G21U C48G, the self-cleavage came to 0.132.

Turning to G21U C48U, the self-cleavage came out at 0.101.

For G21C A39C, the self-cleavage was found to be 0.463.

For the variant G21A A31C, the self-cleavage came to 0.133.

Take G21A A31G: the self-cleavage was determined as 0.424.

With G21C A47G, the self-cleavage is 0.157.

With U20A G51U, the self-cleavage worked out at 0.833.

With U20A G51A, the self-cleavage was 0.765.

With G21A U55G, the self-cleavage was found to be 0.271.

Take G21A U55C: the self-cleavage came out at 0.242.

In the case of G21C G29C, the self-cleavage stood at 0.119.

As for G21C G29A, the self-cleavage is 0.0976.

On to U20C G27U, for which the self-cleavage worked out at 0.181.

As for G21U G25U, the self-cleavage worked out at 0.461.

Regarding G21U G25C, the self-cleavage worked out at 0.342.

With G21U A41G, the self-cleavage was determined as 0.772.

Take G21A U60G: the self-cleavage turned out to be 0.533.

In the case of G21U A61G, the self-cleavage was 0.245.

Turning to G21C U33C, the self-cleavage amounted to 0.145.

G21C U33G: the self-cleavage was determined as 0.238.

In the case of U20A A61C, the self-cleavage stood at 0.156.

On to G21A U67A, for which the self-cleavage was found to be 0.23.

As to G21A U67C, the self-cleavage came to 0.248.

In the case of U20C A59G, the self-cleavage came to 0.149.

In the case of U20C A59U, the self-cleavage was 0.157.

As for U20C, the self-cleavage is 0.963.

On to U20A, for which the self-cleavage was determined as 0.869.

Regarding U20G, the self-cleavage came out at 0.879.

For the variant G21U, the self-cleavage is 0.844.

As to G21A, the self-cleavage came to 0.809.

For the variant G21C, the self-cleavage worked out at 0.812.

Take U20A U53C: the self-cleavage turned out to be 0.682.

Regarding U20A U53G, the self-cleavage is 0.673.

For the variant G21C G42C, the self-cleavage came out at 0.195.

As to G21C G42A, the self-cleavage is 0.216.

In the case of U20G A45C, the self-cleavage was 0.16.

With U20A G69A, the self-cleavage was 0.337.

As to U20G G68A, the self-cleavage was 0.14.

On to U20A U58C, for which the self-cleavage turned out to be 0.847.

Take G21A U58A: the self-cleavage came out at 0.533.

Turning to G21A U58C, the self-cleavage was determined as 0.916.

On to U20A U55A, for which the self-cleavage amounted to 0.252.

As for U20A U55G, the self-cleavage came out at 0.256.

For U20A U55C, the self-cleavage worked out at 0.258.

U20C U63G: the self-cleavage came out at 0.169.

Regarding U20C U63A, the self-cleavage amounted to 0.116.

Regarding U20G A26U, the self-cleavage is 0.683.

As for G21A G40C, the self-cleavage is 0.169.

Consider G21A G40A, for which the self-cleavage came out at 0.312.

Turning to U20A A36C, the self-cleavage stood at 0.412.

Consider U20G A61U, for which the self-cleavage is 0.142.

For the variant U20C G29A, the self-cleavage is 0.181.

With U20A A23C, the self-cleavage worked out at 0.734.

G21U G32C: the self-cleavage came to 0.145.

With G21U G32A, the self-cleavage worked out at 0.18.

On to G21C G54C, for which the self-cleavage is 0.305.

Regarding G21A A45G, the self-cleavage was 0.177.

G21A A45C: the self-cleavage is 0.16.

Take G21U G40C: the self-cleavage turned out to be 0.122.

On to U20A U60G, for which the self-cleavage was found to be 0.592.

As for U20A A24G, the self-cleavage was found to be 0.895.

G21A C46G: the self-cleavage worked out at 0.254.

G21A C46U: the self-cleavage turned out to be 0.173.

Take U20C G21C: the self-cleavage is 0.778.

As for G21A G69C, the self-cleavage was determined as 0.246.

On to G21A G69U, for which the self-cleavage was 0.197.

Take U20C A64G: the self-cleavage turned out to be 0.558.

As to U20C A64C, the self-cleavage came out at 0.151.

Take U20C U60G: the self-cleavage came out at 0.534.

U20C G51A: the self-cleavage amounted to 1.19.

U20A A44C: the self-cleavage came to 0.202.

Take G21U C66A: the self-cleavage turned out to be 0.236.

G21U C66G: the self-cleavage was 0.123.

Take G21U A47C: the self-cleavage amounted to 0.282.

On to U20C A30G, for which the self-cleavage turned out to be 0.112.

As for U20A A45U, the self-cleavage came to 0.172.

Turning to G21C A22G, the self-cleavage was found to be 0.786.

G19U U55C: the self-cleavage was determined as 0.226.

As for G21A C50G, the self-cleavage is 0.217.

For the variant G21C A31U, the self-cleavage was determined as 0.0322.

On to G21C A31C, for which the self-cleavage stood at 0.0833.

For U20A G56U, the self-cleavage worked out at 0.114.

Regarding U20A C65U, the self-cleavage is 0.388.

U20G A23C: the self-cleavage is 0.83.

Take U20G G29U: the self-cleavage was found to be 0.101.

For the variant U20C A24C, the self-cleavage was 0.612.

U20G G21C: the self-cleavage was 0.75.

As to U20G G21A, the self-cleavage came out at 0.846.

For U20G C65U, the self-cleavage came out at 0.374.

As to U20A G42A, the self-cleavage amounted to 0.226.

With U20A G42U, the self-cleavage is 0.346.

As for G21C C65U, the self-cleavage was found to be 0.304.

As for G21C C65G, the self-cleavage worked out at 0.249.

Turning to G21A A24C, the self-cleavage came out at 0.563.

With G21A A24G, the self-cleavage amounted to 0.576.

On to U20G U52A, for which the self-cleavage stood at 1.09.

Turning to U20G U52C, the self-cleavage turned out to be 0.998.

With G21C U70A, the self-cleavage is 0.779.

Regarding G21C U70C, the self-cleavage is 0.965.

For the variant U20A A28G, the self-cleavage amounted to 0.833.

As for U20A A28C, the self-cleavage was 0.482.

For the variant G21U A26U, the self-cleavage was determined as 0.561.

As to G21U A26G, the self-cleavage was determined as 0.708.

On to G21A G29A, for which the self-cleavage came to 0.166.

In the case of U20C A31U, the self-cleavage was 0.188.

G21C A23G: the self-cleavage came to 0.77.

For the variant G21A U70G, the self-cleavage amounted to 0.821.

Take G21A U70C: the self-cleavage was determined as 0.758.

In the case of G21A A35U, the self-cleavage is 0.653.

Turning to G21U C37G, the self-cleavage amounted to 0.32.

On to U20C U33G, for which the self-cleavage amounted to 0.0535.

Consider U20C U33A, for which the self-cleavage amounted to 0.0957.

Turning to G21U G42C, the self-cleavage came out at 0.36.

U20C G40C: the self-cleavage came out at 0.218.

In the case of U20A G25C, the self-cleavage came out at 0.447.

On to U20G G27A, for which the self-cleavage stood at 0.31.

As for G21C A61U, the self-cleavage turned out to be 0.304.

Turning to G21C A61G, the self-cleavage came out at 0.104.

As to U20A C66G, the self-cleavage came to 0.0899.

With U20A C66U, the self-cleavage was 0.487.

With U20A G68C, the self-cleavage came to 0.112.

For U20G A35U, the self-cleavage turned out to be 0.581.

For U20G A35G, the self-cleavage turned out to be 0.559.

With G21U A31U, the self-cleavage was determined as 0.0962.

Regarding G21U A43C, the self-cleavage is 0.146.

As to U20A G32C, the self-cleavage came out at 0.174.

U20A G32U: the self-cleavage is 0.0356.

Consider U20A C46G, for which the self-cleavage was 0.162.

On to U20A C46A, for which the self-cleavage is 0.265.

On to U20C A22C, for which the self-cleavage is 0.482.

For the variant U20C G32A, the self-cleavage stood at 0.274.

For G21C A28G, the self-cleavage came to 0.852.

Regarding G21C A28C, the self-cleavage worked out at 0.412.

For the variant U20C U58G, the self-cleavage stood at 0.785.

On to U20G A28G, for which the self-cleavage is 1.01.

As for U20G A28C, the self-cleavage turned out to be 0.462.

Turning to G21A G25A, the self-cleavage stood at 0.239.

With G21A G25C, the self-cleavage came to 0.358.

Consider U20A C37U, for which the self-cleavage was 0.511.

With U20C G57U, the self-cleavage was determined as 0.341.

Turning to U20C G57A, the self-cleavage worked out at 0.167.
